In this data set the test system is ATP. In words: switch fluorescence ratio, 500 uM ATP over buffer (Cy3 cluster intensity, sum of 5 cycles each) (fold (ratio)); higher = stronger signal-on switching upon ATP binding; sequences stand for … in TCGTCGGCAGCGTCAGATGTGTATAAGAGACAGTTTTTTTTTTTTTTTTTTTTTTTTT…TC. Particulars: aptamer strand: ATP DNA aptamer (quencher-CACCTGGGGGAGTATTGCGGAGGAAGG + anchor), 100 nM annealed; ATP concentration: 500 uM. Summed up:
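Clusters carrying Cy3-labelled switching strands on a modified Illumina MiSeq flow-cell were annealed to 100 nM quencher-labelled ATP aptamer and imaged in selection buffer. They were imaged again after 15 min with 500 uM ATP at 22 °C, over five buffer/ATP cycles with NaOH stripping and re-annealing in between. For each cluster, the fluorescence ratio is the summed Cy3 intensity of the target cycles divided by that of the buffer cycles, averaged per switch-domain sequence. Clusters outside 100-1000 RFU were left out.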

± gives the standard deviation of the averaged measurements.

This note sets out measurements from the supplement of paper PMC10126150.
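Also: ATP exposure 15 min at 22 °C before imaging.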

Regarding GAACCACGA, the switch fluorescence ratio was determined as 1.05 ± 0.019. Next, GAACCCCCTC: 1.21 ± 0.18; GAACCGCGTA: 1.11 ± 0.036. The figure for GAACGGCTAG is 1.02 ± 0.011. Next, GAACGGGACA: 1.18 ± 0.065; GAACGGGGAA: 0.996 ± 0.015. Turning to GAACGGGGGA, the switch fluorescence ratio stood at 0.988 ± 0.035. Turning to GAACGTGGTA, the switch fluorescence ratio was determined as 0.9936 ± 0.0038. The figure for GAACTAACAG is 1.03 ± 0.021; for GAACTAACCA it is 1.09 ± 0.02; for GAACTAATAT it is 1.01 ± 0.017. The figure for GAACTAGCGC is 1 ± 0.019. Turning to GAACTAGGGG, the switch fluorescence ratio was determined as 1.05 ± 0.088. As to GAACTAGTAT, the switch fluorescence ratio turned out to be 1.01 ± 0.013. Next, GAACTATGTA: 1.038 ± 0.01. Turning to GAACTCTTAG, the switch fluorescence ratio came out at 1.02 ± 0.019.

Regarding GAACTGGCGC, the switch fluorescence ratio worked out at 1.02 ± 0.096. Regarding GAACTGGGGA, the switch fluorescence ratio turned out to be 0.984 ± 0.047. Consider GAACTGTTTT, for which the switch fluorescence ratio was determined as 0.987 ± 0.018.

In the case of GAACTTGGCG, the switch fluorescence ratio came out at 1.01 ± 0.041.

Consider GAAGAACCGG, for which the switch fluorescence ratio worked out at 0.974 ± 0.022. Next, GAAGAAGGGT: 0.99 ± 0.017; GAAGAAGGTT: 0.99516 ± 0.00083. For the sequence GAAGAATTAT, the switch fluorescence ratio worked out at 1.011 ± 0.0007. With GAAGACTGGG, the switch fluorescence ratio was 1.02 ± 0.051. Next, GAAGAGGGAG: 0.997 ± 0.026; GAAGAGGGTT: 0.972 ± 0.033; GAAGAGTTTG: 0.9776 ± 0.0069.

Consider GAAGATTGAT, for which the switch fluorescence ratio is 0.96 ± 0.022. In the case of GAAGCCCACG, the switch fluorescence ratio stood at 1.09 ± 0.019. For GAAGCCTTGG, the switch fluorescence ratio was found to be 1.009 ± 0.004.

In the case of GAAGCGAGTG, the switch fluorescence ratio stood at 0.9785 ± 0.0056. The figure for GAAGCGTCGT is 0.983 ± 0.063. The figure for GAAGCGTTGG is 1.02 ± 0.0032. Turning to GAAGGAAAGT, the switch fluorescence ratio was 0.9689 ± 0.0057. The figure for GAAGGAATCG is 0.995 ± 0.048. Next, GAAGGAGCGG: 0.982 ± 0.023; GAAGGATGCT: 1.03 ± 0.098; GAAGGCCCGT: 0.991 ± 0.037. As for GAAGGCCGGG, the switch fluorescence ratio was determined as 1.033 ± 0.0054. The figure for GAAGGCGGGG is 0.9933 ± 0.0054; for GAAGGGACGA it is 0.993 ± 0.04. Take GAAGGGGACT: the switch fluorescence ratio was determined as 1.04 ± 0.076. Next, GAAGGGGGAA: 1.02 ± 0.019; GAAGGGGGCA: 0.9882 ± 0.001. For GAAGGGGGGA, the switch fluorescence ratio was 0.985 ± 0.034. Next, GAAGGGGGGG: 0.999 ± 0.042; GAAGGGGTAA: 1.18 ± 0.3. The figure for GAAGGGGTCG is 1.05 ± 0.046; for GAAGGGGTTG it is 1.02 ± 0.065; for GAAGGGTAGC it is 0.996 ± 0.037. In the case of GAAGGGTGAA, the switch fluorescence ratio stood at 0.9966 ± 0.0077.

With GAAGGTACGG, the switch fluorescence ratio was 1.04 ± 0.061. The figure for GAAGGTAGGG is 0.99 ± 0.051.

For the sequence GAAGGTATCC, the switch fluorescence ratio was 1.02 ± 0.037. For the sequence GAAGGTGGGA, the switch fluorescence ratio was found to be 1.038 ± 0.0092. The figure for GAAGGTTGCG is 1.03 ± 0.056; for GAAGTAAAGT it is 1.06 ± 0.15. The figure for GAAGTAAGCT is 0.983 ± 0.026; for GAAGTACAGC it is 1.26 ± 0.031.

In the case of GAAGTAGGGA, the switch fluorescence ratio was 1 ± 0.064. On to GAAGTATTGT, for which the switch fluorescence ratio is 0.9951 ± 0.0062. As to GAAGTATTTT, the switch fluorescence ratio came out at 0.962 ± 0.027. As to GAAGTCATTT, the switch fluorescence ratio worked out at 0.9828 ± 0.0031. The figure for GAAGTCTGGA is 1 ± 0.024. Regarding GAAGTGCGGA, the switch fluorescence ratio stood at 0.9795 ± 0.0061.
